One molecule from patent publication US20230407401A1 (NATIONAL INSTITUTE OF IMMUNOLOGY, published 2023) can be followed below.

In the experiment the target is T1, S35 methionine radiolabelled BLM (in vitro translated) (UniProt P54132 1-1417, limits assumed, S35 methionine radiolabel).
T1 construct: also called in vitro translated BLM; radioactive BLM
Put plainly: in vitro interaction of S35 methionine radiolabelled BLM with bound GST SMAD3, autoradiography. How it is done:
H. BLM directly interacted with SMAD3 and HDAC1. (Top) In vitro interactions were carried out with S35 methionine radiolabelled BLM and bound (left) GST and GST SMAD3, (right) GST and GST HDAC1. Post-interaction the bound radioactive BLM was detected by autoradiography. (Bottom) Inputs used for in vitro translated BLM (detected by autoradiography) and GST, GST SMAD3, GST HDAC1 (detected by Coomassie). The

T1 sequence (P54132 whole entry): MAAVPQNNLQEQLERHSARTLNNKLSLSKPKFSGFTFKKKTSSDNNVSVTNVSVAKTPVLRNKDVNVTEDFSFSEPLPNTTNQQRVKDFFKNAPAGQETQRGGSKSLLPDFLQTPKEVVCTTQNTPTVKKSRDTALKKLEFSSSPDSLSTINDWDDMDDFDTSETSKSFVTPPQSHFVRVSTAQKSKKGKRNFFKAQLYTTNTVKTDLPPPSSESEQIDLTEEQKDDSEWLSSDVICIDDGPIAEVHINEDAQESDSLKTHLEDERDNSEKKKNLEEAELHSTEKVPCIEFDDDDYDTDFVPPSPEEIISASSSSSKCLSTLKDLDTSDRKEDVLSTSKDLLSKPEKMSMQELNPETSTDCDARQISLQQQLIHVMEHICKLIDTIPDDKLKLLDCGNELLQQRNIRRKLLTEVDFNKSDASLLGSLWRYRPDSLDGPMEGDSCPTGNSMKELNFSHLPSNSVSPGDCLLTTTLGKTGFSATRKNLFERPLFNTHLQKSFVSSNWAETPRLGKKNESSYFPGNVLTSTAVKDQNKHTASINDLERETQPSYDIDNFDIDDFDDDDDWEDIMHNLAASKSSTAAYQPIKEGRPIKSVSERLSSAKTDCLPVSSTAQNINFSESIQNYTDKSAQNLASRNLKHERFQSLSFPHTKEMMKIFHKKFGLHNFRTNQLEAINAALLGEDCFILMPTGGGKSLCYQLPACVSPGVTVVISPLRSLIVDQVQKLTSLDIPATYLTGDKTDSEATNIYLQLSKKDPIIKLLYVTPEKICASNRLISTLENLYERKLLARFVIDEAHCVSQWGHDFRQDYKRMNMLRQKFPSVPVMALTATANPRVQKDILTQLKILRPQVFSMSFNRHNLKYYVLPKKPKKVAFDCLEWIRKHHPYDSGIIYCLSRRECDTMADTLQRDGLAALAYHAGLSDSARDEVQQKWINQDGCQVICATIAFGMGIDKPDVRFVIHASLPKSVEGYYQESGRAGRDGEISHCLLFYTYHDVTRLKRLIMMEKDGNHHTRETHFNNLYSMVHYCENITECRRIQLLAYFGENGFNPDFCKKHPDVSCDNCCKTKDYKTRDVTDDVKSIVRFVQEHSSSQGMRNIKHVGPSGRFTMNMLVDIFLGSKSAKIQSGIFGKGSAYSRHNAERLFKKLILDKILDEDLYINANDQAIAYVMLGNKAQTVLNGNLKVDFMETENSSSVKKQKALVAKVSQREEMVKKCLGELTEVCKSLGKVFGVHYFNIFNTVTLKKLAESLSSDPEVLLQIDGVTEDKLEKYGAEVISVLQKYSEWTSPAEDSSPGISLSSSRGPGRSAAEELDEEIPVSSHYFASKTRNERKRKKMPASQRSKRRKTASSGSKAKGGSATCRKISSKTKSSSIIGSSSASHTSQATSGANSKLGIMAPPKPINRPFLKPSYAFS

B1: GST SMAD3 (WT) (other, UniProt P84022 1-425, looked up)
chain: MSSILPFTPPIVKRLLGWKKGEQNGQEEKWCEKAVKSLVKKLKKTGQLDELEKAITTQNVNTKCITIPRSLDGRLQVSHRKGLPHVIYCRLWRWPDLHSHHELRAMELCEFAFNMKKDEVCVNPYHYQRVETPVLPPVLVPRHTEIPAEFPPLDDYSHSIPENTNFPAGIEPQSNIPETPPPGYLSEDGETSDHQMNHSMDAGSPNLSPNPMSPAHNNLDLQPVTYCEPAFWCSISYYELNQRVGETFHASQPSMTVDGFTDPSNSERFCLGLLSNVNRNAAVELTRRHIGRGVRLYYIGGEVFAECLSDSAIFVQSPNCNQRYGWHPATVCKIPPGCNLKIFNNQEFAALLAQSVNQGFEAVYQLTRMCTIRMSFVKGWGAEYRRQTVTSTPCWIELHLNGPLQWLDKVLTQMGSPSIRCSSVS
notes: also called pGEX6-SMAD3 WT; not shown: Glutathione S-transferase tag of the pGEX6 vector
Regarding B1, the binding result was “binds”.
